US20230151105A1

Columns and labels:
[1] = target: recombinant OX40-Fc protein (R & D, Cat 3388-OX) (human) (UniProt P43489); assay: blocking ELISA: OX40-Fc coated, antibody titrated, competitor OX40L at 50 ng/ml
[2] = target: human OX40 expressed on the cell surface (human) (UniProt P43489); assay: cell-based or functional assay
Chain of human OX40 expressed on the cell surface (human) (P43489 29-277): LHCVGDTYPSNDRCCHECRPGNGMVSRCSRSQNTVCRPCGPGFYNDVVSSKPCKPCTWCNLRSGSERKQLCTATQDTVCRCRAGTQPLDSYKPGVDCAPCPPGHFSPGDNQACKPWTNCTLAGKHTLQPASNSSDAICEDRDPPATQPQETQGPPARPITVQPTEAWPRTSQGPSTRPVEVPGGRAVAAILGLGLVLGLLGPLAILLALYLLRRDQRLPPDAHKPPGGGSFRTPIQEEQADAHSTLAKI

Chain of recombinant OX40-Fc protein (R & D, Cat 3388-OX) (human) (P43489 29-214): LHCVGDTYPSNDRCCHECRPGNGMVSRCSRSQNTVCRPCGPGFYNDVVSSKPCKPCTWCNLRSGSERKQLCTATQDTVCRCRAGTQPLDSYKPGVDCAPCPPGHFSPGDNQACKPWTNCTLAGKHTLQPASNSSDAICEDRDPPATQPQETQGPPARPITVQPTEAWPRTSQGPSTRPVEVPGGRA

B1: GBR830 (antibody, from another filing, V domains shown)
VH: QVTLKESGPALVKPTQTLTLTCSFSGFSLSTSGMGVGWIRQPPGKALEWIAHIWWDDDKYYNTALKTRLTISKDTSKNQVVLTMTNMDPVDTATYYCARIDWDGFAYWGQGTLVTVSS
VL: EIVLTQSPATLSLSPGERATLSCRASSSVSYMHWYQQKPGQAPRPWIYATSNRATGIPARFSGSGSGTDYTLTISSLEPEDFAVYYCQQWSSNPWTFGQGTKVEIKR
IC50 [1]: 0.3 nM
maximum inhibition rate [1]: 50%
blocking of OX40L-mediated T cell activation, IFNγ secretion, IC50 [2]: 1.1 nM
